According to patent US20100068742:

What was measured:
[1] = biological target: GST-ezrin (amino acids 1-586), P15311
[2] = biological target: LRRKtide with +1Leu mutated to Ala
[3] = biological target: LRRKtide with -2Tyr mutated to Arg
[4] = biological target: T1, chicken maltose binding protein-MYPT (amino acids 714-1004), Q90623
T1 chain: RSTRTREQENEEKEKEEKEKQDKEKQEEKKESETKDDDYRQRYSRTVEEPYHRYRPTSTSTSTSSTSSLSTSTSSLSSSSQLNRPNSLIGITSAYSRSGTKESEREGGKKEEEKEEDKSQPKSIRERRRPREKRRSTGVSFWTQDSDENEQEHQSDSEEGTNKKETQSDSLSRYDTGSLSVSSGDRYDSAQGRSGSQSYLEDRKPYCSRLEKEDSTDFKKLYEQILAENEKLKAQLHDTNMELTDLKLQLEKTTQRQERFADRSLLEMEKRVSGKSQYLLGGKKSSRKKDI

[5] = biological target: T2, Nictide (RLGWWRFYTLRRARQGNTKQR)
T2 chain: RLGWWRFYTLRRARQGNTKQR

Chain of GST-ezrin (amino acids 1-586), P15311 (P15311 whole entry, the tested form may be a part): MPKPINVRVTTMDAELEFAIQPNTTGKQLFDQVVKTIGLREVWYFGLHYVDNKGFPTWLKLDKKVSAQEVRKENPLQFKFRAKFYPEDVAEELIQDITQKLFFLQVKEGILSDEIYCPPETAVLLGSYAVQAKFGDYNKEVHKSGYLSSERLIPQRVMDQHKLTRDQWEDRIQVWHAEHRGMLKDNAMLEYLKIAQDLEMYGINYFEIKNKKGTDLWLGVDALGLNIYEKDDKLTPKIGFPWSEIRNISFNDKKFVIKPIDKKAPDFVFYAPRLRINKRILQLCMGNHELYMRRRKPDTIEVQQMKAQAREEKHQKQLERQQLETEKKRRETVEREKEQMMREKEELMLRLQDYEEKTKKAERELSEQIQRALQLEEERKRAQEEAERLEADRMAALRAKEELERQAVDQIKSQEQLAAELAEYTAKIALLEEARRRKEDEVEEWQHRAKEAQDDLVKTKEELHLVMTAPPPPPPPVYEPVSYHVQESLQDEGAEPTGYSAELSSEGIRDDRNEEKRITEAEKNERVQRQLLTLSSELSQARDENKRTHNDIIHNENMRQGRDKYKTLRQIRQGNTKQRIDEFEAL

B1: rat ROCK2 (amino acids 2-543) (protein)
chain: SRPPPTGKMPGAPEAAAGDGAGAGRQRKLEALIRDPRSPINVESLLDGLNSLVLDLDFPALRKNKNIDNFLNRYEKIVKKIRGLQMKAEDYDVVKVIGRGAFGEVQLVRHKASQKVYAMKLLSKFEMIKRSDSAFFWEERDIMAFANSPWVVQLFCAFQDDRYLYMVMEYMPGGDLVNLMSNYDVPEKWAKFYTAEVVLALDAIHSMGLIHRDVKPDNMLLDKHGHLKLADFGTCMKMDETGMVHCDTAVGTPDYISPEVLKSQGGDGYYGRECDWWSVGVFLFEMLVGDTPFYADSLVGTYSKIMDHKNSLCFPEDTEISKHAKNLICAFLTDREVRLGRNGVEEIKSASFFKNDQWNWDNIRETAAPVVPELSSDIDSSNFDDIEDDKGDVETFPIPKAFVGNQLPFIGFTYFRENLLLSDSPPCRENDAIQTRKSEESQEIQKKLYALEEHLSSEVQAKEELEQKCKSINTRLEKTAKELEEEITFRKNVESTLRQLEREKALLQHKNAEYQRKADHEADKKRNLENDVNSLKDQLEDL
protein substrate phosphorylation (32P autoradiography) [1]: but barely ezrin | peptide phosphorylation [2]: abolished phosphorylation by ROCK2 | fold decrease of Km against wild type LRRKtide [3]: decreased the Km value over 60-fold | fold increase of Vmax against wild type LRRKtide [3]: increased the Vmax over 5-fold | protein substrate phosphorylation (32P autoradiography) [4]: ROCK2 phosphorylated MYPT

B2: GST-LRRK2 1326-2527 [wild type] (protein)
chain: LKKAVPYNRMKLMIVGNTGSGKTTLLQQLMKTKKSDLGMQSATVGIDVKDWPIQIRDKRKRDLVLNVWDFAGREEFYSTHPHFMTQRALYLAVYDLSKGQAEVDAMKPWLFNIKARASSSPVILVGTHLDVSDEKQRKACMSKITKELLNKRGFPAIRDYHFVNATEESDALAKLRKTIINESLNFKIRDQLVVGQLIPDCYVELEKIILSERKNVPIEFPVIDRKRLLQLVRENQLQLDENELPHAVHFLNESGVLLHFQDPALQLSDLYFVEPKWLCKIMAQILTVKVEGCPKHPKGIISRRDVEKFLSKKRKFPKNYMSQYFKLLEKFQIALPIGEEYLLVPSSLSDHRPVIELPHCENSEIIIRLYEMPYFPMGFWSRLINRLLEISPYMLSGRERALRPNRMYWRQGIYLNWSPEAYCLVGSEVLDNHPESFLKITVPSCRKGCILLGQVVDHIDSLMEEWFPGLLEIDICGEGETLLKKWALYSFNDGEEHQKILLDDLMKKAEEGDLLVNPDQPRLTIPISQIAPDLILADLPRNIMLNNDELEFEQAPEFLLGDGSFGSVYRAAYEGEEVAVKIFNKHTSLRLLRQELVVLCHLHHPSLISLLAAGIRPRMLVMELASKGSLDRLLQQDKASLTRTLQHRIALHVADGLRYLHSAMIIYRDLKPHNVLLFTLYPNAAIIAKIADYGIAQYCCRMGIKTSEGTPGFRAPEVARGNVIYNQQADVYSFGLLLYDILTTGGRIVEGLKFPNEFDELEIQGKLPDPVKEYGCAPWPMVEKLIKQCLKENPQERPTSAQVFDILNSAELVCLTRRILLPKNVIVECMVATHHNSRNASIWLGCGHTDRGQLSFLDLNTEGYTSEEVADSRILCLALVHLPVEKESWIVSGTQSGTLLVINTEDGKKRHTLEKMTDSVTCLYCNSFSKQSKQKNFLLVGTADGKLAIFEDKTVKLKGAAPLKILNIGNVSTPLMCLSESTNSTERNVMWGGCGTKIFSFSNDFTIQKLIETRTSQLFSYAAFSDSNIITVVVDTALYIAKQNSPVVEVWDKKTEKLCGLIDCVHFLREVMVKENKESKHKMSYSGRVKTLCLQKNTALWIGTGGGHILLLDLSTRRLIRVIYNFCNSVRVMMTAQLGSLKNVMLVLGYNRKNTEGTQKQKEIQSCLTVWDINLPHEVQNLEKHIEVRKELAEKMRRTSVE
protein substrate phosphorylation (32P autoradiography) [1]: LRRK2 phosphorylated ezrin | Km of peptide phosphorylation [5]: a similar Km | fold decrease of Vmax against LRRK2[G2019S] [5]: ~2-fold lower Vmax | protein substrate phosphorylation (32P autoradiography) [4]: did not phosphorylate MYPT
